Laboratory results from patent publication US11549123B2, “Plant EPSP synthases and methods of use” (PIONEER HI-BRED INTERNATIONAL, INC., priority 2015, dated 2023).
Substitutions are numbered along the chain they refer to. Numbers in names are those of the source.

Assays:
[1] = system: C=C(OP(=O)(O)O)C(=O)O; assay: purified protein, by the assay type; conditions: other: substrate saturation; Bacterial EPSPS / CP4
Text: There are several practical considerations for accurately estimating (kcat/KM)*KI with the rapid method. […] If inhibition is too little, v0-vi will be small, and the error in the multiplier vi×v0/(v0-vi) will be large. […] High substrate concentration obscures sensitivity to the inhibitor and reduces stringency for capturing improvements in KM.

[2] = substrate: C=C(OP(=O)(O)O)C(=O)O; assay: Substrate saturation analysis with glyphosate (Example 8), Zm-H6; format: biochemical, Zea mays; conditions: other: substrate saturation, pH 7.0
Text: Generally, (kcat/KM)*KI is obtained by performing substrate saturation analysis in the absence and presence of inhibitor. However, that analysis takes longer. […] To validate the method, (kcat/KM)*KI was quantified using both methods—traditional (saturation) and the instant method (rapid), for variants of maize 5-enolpyruvylshikimate-3-phosphate synthase (EPSPS) and its competitive inhibitor, glyphosate.
The amino acid sequence of mature Zea mays EPSPS was obtained from GenBank entry CAA44974.1 (SEQ ID NO:2). A nucleotide sequence was created to add an N-terminal methionine and to optimize codon usage for expression in E. coli. The synthesized gene was cloned into an expression vector that provides a T7 promoter driving expression of the protein and a 10× N-terminal histidine tag. Variants selected for this study include native maize EPSPS and variants generated by a gene shuffling cascade described herein. […] Protein concentration was determined by absorbance at 280 nm using an extinction coefficient of 0.676 OD/mg/m L. The proteins were normalized to 0.5 mg/mL for assay.
EPSPS activity was determined by quantifying the phosphate generated by the reaction. […] The absorbance change that occurs was monitored continuously at 360 nm, where the extinction is 11,200 M-1 cm-1, with a Spectramax plate reader (Molecular Devices). […]

[3] = substrate: C=C(OP(=O)(O)O)C(=O)O; assay: Substrate saturation kinetic analysis with glyphosate, H6-D196V; format: biochemical, Zea mays; conditions: other: substrate saturation
[4] = substrate: C=C(OP(=O)(O)O)C(=O)O; assay: Substrate saturation kinetic analysis with glyphosate, H6-A76V; format: biochemical, Zea mays; conditions: other: substrate saturation
[5] = substrate: C=C(OP(=O)(O)O)C(=O)O; assay: Substrate saturation kinetic analysis with glyphosate, H6-V87T; format: biochemical, Zea mays; conditions: other: substrate saturation
[6] = substrate: C=C(OP(=O)(O)O)C(=O)O; assay: Substrate saturation kinetic analysis with glyphosate, H6-H54E; format: biochemical, Zea mays; conditions: other: substrate saturation
[7] = substrate: C=C(OP(=O)(O)O)C(=O)O; assay: Substrate saturation kinetic analysis with glyphosate, H6-A36G; format: biochemical, Zea mays; conditions: other: substrate saturation
[8] = substrate: C=C(OP(=O)(O)O)C(=O)O; assay: Substrate saturation kinetic analysis with glyphosate, H6-A69V; format: biochemical, Zea mays; conditions: other: substrate saturation
[9] = substrate: C=C(OP(=O)(O)O)C(=O)O; assay: Substrate saturation kinetic analysis with glyphosate, H6-R61Y; format: biochemical, Zea mays; conditions: other: substrate saturation
[10] = substrate: C=C(OP(=O)(O)O)C(=O)O; assay: Substrate saturation kinetic analysis with glyphosate, H6-K246G; format: biochemical, Zea mays; conditions: other: substrate saturation
[11] = substrate: C=C(OP(=O)(O)O)C(=O)O; assay: EPSPS substrate saturation kinetics, sunflower H6; format: biochemical; conditions: other: PEP varied; pH 7.0
Method: EPSPS activity was determined by quantifying the phosphate generated from the EPSPS reaction. Release of inorganic phosphate was coupled to reaction with 2-amino-6-mercapto-7-methylpurine ribonucleoside, catalyzed by purine-nucleoside phosphorylase (M R Webb, Proc. Natl. Acad. Sci. 89:4884-4887, 1992). The absorbance change that occurs was monitored at 360 nm, where the extinction is 11,200 M^−1 cm^−1, with a Spectramax plate reader (Molecular Devices). To determine kinetic parameters, the varied substrate was present at seven concentrations (the eighth being the blank, containing no substrate) ranging from 4 to 400 uM and the unvaried substrate present at saturation. […] Reactions were monitored with a Spectramax plate reader. […] KI was then calculated from the following form of the Michaelis-Menten equation for competitive inhibition: KI=KM[I]/(KM app−KM) KM approximates the dissociation constant of the enzyme-substrate complex while kcat is the rate of conversion of substrate to product when the substrate concentration is saturating. kcat/KM is a widely accepted parameter for catalytic efficiency when substrate concentration is low (˜KM). […] The parameter kcat/KM×KI is used to quantify both catalytic efficiency and insensitivity and thus the overall fitness of the enzyme.
Native EPSPS amino acid sequences of rice (Oryza sativa) (SEQ ID NO:7), sorghum (Sorghum halepense) (SEQ ID NO:8), and sunflower (Helianthus annus) (SEQ ID NO:9) including the chloroplast transit peptide sequences were assembled and analyzed for mapping the corresponding amino acid mutations from the maize 868-H6. […]
ChloroP Prediction Server (Emanuelsson, O. et al. 1999. Protein Sci. 8(5):978-84) was used to approximate the amino terminus of the mature EPSPS proteins. […] The synthetic genes were cloned into a plasmid vector and expressed, purified and analyzed as described in Example 1.

[12] = substrate: C=C(OP(=O)(O)O)C(=O)O; assay: Substrate saturation kinetic analysis with glyphosate, Zm-T103A; format: biochemical, Zea mays; conditions: other: substrate saturation
[13] = substrate: C=C(OP(=O)(O)O)C(=O)O; assay: Substrate saturation kinetic analysis with glyphosate, Zm-T103I; format: biochemical, Zea mays; conditions: other: substrate saturation
[14] = substrate: C=C(OP(=O)(O)O)C(=O)O; assay: Substrate saturation kinetic analysis with glyphosate, Zm-P107S; format: biochemical, Zea mays; conditions: other: substrate saturation
[15] = substrate: C=C(OP(=O)(O)O)C(=O)O; assay: Substrate saturation kinetic analysis with glyphosate, Zm-A189T; format: biochemical, Zea mays; conditions: other: substrate saturation

Bacterial EPSPS (CP4) (Agrobacterium sp. CP4)
Km [1]: 15.8 µM | kcat [1]: 20.32 s⁻¹

B1: Zea mays EPSPS variant Zm-H6 (868-H6) (Zea mays; A1R/A3W/A415G/A71Q/D401G/E301S/E390G/G101A/I207L/K83R/L97C/T278A/T360S/T440Q/V437R) (protein)
chain: MRGWEEIVLQPIKEISGTVKLPGSKSLSNRILLLAALSEGTTVVDNLLNSEDVHYMLGALRTLGLSVEADKQAKRAVVVGCGGRFPVEDAKEEVQLFCGNAATAMRPLTAAVTAAGGNATYVLDGVPRMRERPIGDLVVGLKQLGADVDCFLGTDCPPVRVNGIGGLPGGKVKLSGSISSQYLSALLMAAPLALGDVEIEIIDKLISLPYVEMTLRLMERFGVKAEHSDSWDRFYIKGGQKYKSPKNAYVEGDASSASYFLAGAAITGGTVTVEGCGTASLQGDVKFAEVLEMMGAKVTWTSTSVTVTGPPREPFGRKHLKAIDVNMNKMPDVAMTLAVVALFADGPTAIRDVASWRVKESERMVAIRTELTKLGASVEEGPDYCIITPPGKLNVTAIDTYGDHRMAMAFSLAACGEVPVTIRDPGCTRKTFPDYFDRLSQFVKN
Km [2]: 20.6 µM | kcat [2]: 3.3 s⁻¹

B2: Zea mays EPSPS variant Zm-H6 (868-H6) with D196V (H6-D196V) (Zea mays; A1R/A3W/A415G/A71Q/D195V/D401G/E301S/E390G/G101A/I207L/K83R/L97C/T278A/T360S/T440Q/V437R) (protein)
chain: B1 chain with D196V
notes: shuffled variant 868-H6 plus D196V; E. coli BL21(DE3), Ni-NTA purified
Km [3]: 61.8 µM | kcat [3]: 2.73 s⁻¹

B3: Zea mays EPSPS variant Zm-H6 (868-H6) with A76V (H6-A76V) (Zea mays; A1R/A3W/A415G/A71Q/A75V/D401G/E301S/E390G/G101A/I207L/K83R/L97C/T278A/T360S/T440Q/V437R) (protein)
chain: B1 chain with A76V
Km [4]: 45.2 µM | kcat [4]: 3.48 s⁻¹

B4: Zea mays EPSPS variant Zm-H6 (868-H6) with V87T (H6-V87T) (Zea mays; A1R/A3W/A415G/A71Q/D401G/E301S/E390G/G101A/I207L/K83R/L97C/T278A/T360S/T440Q/V437R/V86T) (protein)
chain: B1 chain with V87T
notes: 868-H6 plus V87T; E. coli BL21(DE3), Ni-NTA purified
Km [5]: 27.5 µM | kcat [5]: 4.32 s⁻¹

B5: Zea mays EPSPS variant Zm-H6 (868-H6) with H54E (H6-H54E) (Zea mays; A1R/A3W/A415G/A71Q/D401G/E301S/E390G/G101A/H53E/I207L/K83R/L97C/T278A/T360S/T440Q/V437R) (protein)
chain: B1 chain with H54E
notes: 868-H6 plus H54E; E. coli BL21(DE3), Ni-NTA purified
Km [6]: 27.9 µM | kcat [6]: 4.13 s⁻¹

B6: Zea mays EPSPS variant Zm-H6 (868-H6) with A36G (H6-A36G) (Zea mays; A1R/A35G/A3W/A415G/A71Q/D401G/E301S/E390G/G101A/I207L/K83R/L97C/T278A/T360S/T440Q/V437R) (protein)
chain: B1 chain with A36G
Km [7]: 30.8 µM | kcat [7]: 4.1 s⁻¹

B7: Zea mays EPSPS variant Zm-H6 (868-H6) with A69V (H6-A69V) (Zea mays; A1R/A3W/A415G/A68V/A71Q/D401G/E301S/E390G/G101A/I207L/K83R/L97C/T278A/T360S/T440Q/V437R) (protein)
chain: B1 chain with A69V
Km [8]: 21.1 µM | kcat [8]: 2.68 s⁻¹

B8: Zea mays EPSPS variant Zm-H6 (868-H6) with R61Y (H6-R61Y) (Zea mays; A1R/A3W/A415G/A71Q/D401G/E301S/E390G/G101A/I207L/K83R/L97C/R60Y/T278A/T360S/T440Q/V437R) (protein)
chain: B1 chain with R61Y
notes: 868-H6 plus R61Y; E. coli BL21(DE3), Ni-NTA purified
Km [9]: 23.6 µM | kcat [9]: 2.08 s⁻¹

B9: Zea mays EPSPS variant Zm-H6 (868-H6) with K246G (H6-K246G) (Zea mays; A1R/A3W/A415G/A71Q/D401G/E301S/E390G/G101A/I207L/K245G/K83R/L97C/T278A/T360S/T440Q/V437R) (protein)
chain: B1 chain with K246G
notes: 868-H6 plus K246G; E. coli BL21(DE3), Ni-NTA purified
Km [10]: 24.0 µM | kcat [10]: 3.5 s⁻¹

B10: Helianthus annuus EPSPS with 868-H6 mutations, SEQ ID NO:10 (Helianthus annuus; … (protein)
chain: ATTRKWSTAPEEIVLKPIKEISGTVNLPGSKSLSNRILLLAALAEGTTVVDNLLNSDDVHYMLGALRALGLNVEENGQIKRATVEGCGGRFPVGKEAKDEIQLFCGNAATAMRPLTAAVTAAGGNSSYILDGVPRMRERPIGDLVTGLKQLGADVDCFLGTNCPPVRVAANGGLPGGKVKLSGSISSQYLTALLMAAPLALGDVEIEIIDKLISLPYVEMTLKLMERFGVSVEHSDSWDKFYVRGGQKYKSPGNAYVEGDASSASYFLAGAAITGGTVTVEGCGTASLQGDVKFAEVLGQMGAEVTWTSNSVTVRGPPRNASGRGHLRPVDVNMNKMPDVAMTLAVVALYADGPTAIRDVASWRVKESERMIAICTELRKLGATVEEGPDYCVITPPGKLNVTAIDTYGDHRMAMAFSLAACGDVPVTIKDPGCTRKTFPDYFERLEQFTKH
Km [11]: 37.2 µM | kcat [11]: 3.52 s⁻¹ | kcat/Km [11]: 100000 M⁻¹ s⁻¹

B11: Zea mays EPSPS variant Zm-T103A (Zea mays; T102A) (protein)
chain: MAGAEEIVLQPIKEISGTVKLPGSKSLSNRILLLAALSEGTTVVDNLLNSEDVHYMLGALRTLGLSVEADKAAKRAVVVGCGGKFPVEDAKEEVQLFLGNAGAAMRPLTAAVTAAGGNATYVLDGVPRMRERPIGDLVVGLKQLGADVDCFLGTDCPPVRVNGIGGLPGGKVKLSGSISSQYLSALLMAAPLALGDVEIEIIDKLISIPYVEMTLRLMERFGVKAEHSDSWDRFYIKGGQKYKSPKNAYVEGDASSASYFLAGAAITGGTVTVEGCGTTSLQGDVKFAEVLEMMGAKVTWTETSVTVTGPPREPFGRKHLKAIDVNMNKMPDVAMTLAVVALFADGPTAIRDVASWRVKETERMVAIRTELTKLGASVEEGPDYCIITPPEKLNVTAIDTYDDHRMAMAFSLAACAEVPVTIRDPGCTRKTFPDYFDVLSTFVKN
notes: native maize plus T103A; E. coli BL21(DE3), Ni-NTA purified
Km [12]: 292 µM | kcat [12]: 7.52 s⁻¹

B12: Zea mays EPSPS variant Zm-T103I (Zea mays; T102I) (protein)
chain: B11 chain with A103I
notes: native maize plus T103I; E. coli BL21(DE3), Ni-NTA purified
Km [13]: 171 µM | kcat [13]: 5.33 s⁻¹

B13: Zea mays EPSPS variant Zm-P107S (Zea mays; P106S) (protein)
chain: B11 chain with A103T, P107S
notes: native maize plus P107S; E. coli BL21(DE3), Ni-NTA purified
Km [14]: 14.8 µM | kcat [14]: 29.97 s⁻¹

B14: Zea mays EPSPS variant Zm-A189T (Zea mays; A188T) (protein)
chain: B11 chain with A103T, A189T
Km [15]: 307 µM | kcat [15]: 4.3 s⁻¹
